The subject of data set [1] is HeLa Kyoto. As to the kind of experiment: thermal stability score vs G1/S (z-score of summed log2 fold changes over temperatures); higher = more thermally stable than in G1/S.
Data set [2] concerns HeLa Kyoto. Put plainly: solubility change mitosis vs G1/S (difference of NP-40 vs SDS log2 ratios) (log2 ratio difference); higher = more soluble in mitosis.
Data set [3] relates to HeLa Kyoto. Put plainly: solubility in G1/S (NP-40 vs SDS abundance) (log2 ratio); higher = more soluble. The note with it: cell cycle stage: G1/S.
In data set [4] the test system is HeLa Kyoto. As to the kind of experiment: melting temperature (median over replicates), in situ; higher = more thermally stable.
Where [5] appears, read: cell cycle stage: early G1 (4.5 h after nocodazole release).
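Throughout, for melting temperature (median over replicates), in situ: HeLa Kyoto cells synchronized by double thymidine or nocodazole block, proteins quantified by TMT10plex mass spectrometry, three independent biological replicates.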
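Throughout, for solubility change mitosis vs G1/S (difference of NP-40 vs SDS log2 ratios): synchronized HeLa Kyoto cells (double thymidine block for G1/S, nocodazole release for mitosis), protein amounts in NP-40 versus SDS lysates quantified by mass spectrometry, three biological replicates.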
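Throughout, for solubility in G1/S (NP-40 vs SDS abundance): HeLa Kyoto cells arrested at G1/S by double thymidine block, proteins quantified by TMT10plex mass spectrometry in mild NP-40 versus SDS extracts, three biological replicates.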
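Throughout, for thermal stability score vs G1/S (z-score of summed log2 fold changes over temperatures): synchronized HeLa Kyoto cells, proteins quantified by TMT10plex mass spectrometry, three biological replicates, mitosis taken 0.5 h after nocodazole release, G1/S directly after double thymidine block.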

With “MNYDSQQPPLPPLPYAGCRRASGFPALGRGGTVPVGVWGGAGQGREGRSWGEGPRGPGLGRRDLSSADPAVLGATMESRCYGCAVKFTLFKKEYGCKNCGRAFCSGCLSFSAAVPRTGNTQQKVCKQCHEVLTRGSSANASKWSPPQNYKKRVAALEAKQKPSTSQSQGLTRQDQMIAERLARLRQENKPKLVPSQAEIEARLAALKDERQGSIPSTQEMEARLAALQGRVLPSQTPQPAHHTPDTRTQAQQTQDLLTQLAAEVAIDESWKGGGPAASLQNDLNQGGPGSTNSKRQANWSLEEEKSRLLAEAALELREENTRQERILALAKRLAMLRGQDPERVTLQDYRLPDSDDDEDEETAIQRVLQQLTEEASLDEASGFNIPAEQASRPWTQPRGAEPEAQDVDPRPEAEEEELPWCCICNEDATLRCAGCDGDLFCARCFREGHDAFELKEHQTSAYSPPRAGQEH [ZFYVE19]”, the thermal stability score in data set [1] (setting [5]) was -2.39; in data set [1] (cell cycle stage: mitosis) it was -1.86. For the same substance, the “solubility change mitosis (log2)” value in data set [2] is -0.237. Besides, in data set [3], the “solubility in G1/S (log2)” value turned out to be 0.428. For the same substance, the figures for the melting temperature in data set [4] (cell cycle stage: G1/S) and in data set [4] (cell cycle stage: mitosis) were 54.2 °C and 52.9 °C, respectively.

MON2: the results for the thermal stability score in data set [1] (setting [5]) and in data set [1] (cell cycle stage: mitosis) were -0.177 and 0.256, respectively. Also, the “solubility change mitosis (log2)” value in data set [2] was -0.108. Further, the “solubility in G1/S (log2)” value in data set [3] is -0.103. Moreover, the results for the melting temperature in data set [4] (cell cycle stage: G1/S) and in data set [4] (cell cycle stage: mitosis) were 49.8 °C and 50.1 °C, respectively.

On to “MPAERKKPASMEEKDSLPNNKEKDCSERRTVSSKERPKDDIKLTAKKEVSKAPEDKKKRLEDDKRKKEDKERKKKDEEKVKAEEESKKKEEEEKKKHQEEERKKQEEQAKRQQEEEAAAQMKEKEESIQLHQEAWERHHLRKELRSKNQNAPDSRPEENFFSRLDSSLKKNTAFVKKLKTITEQQRDSLSHDFNGLNLSKYIAEAVASIVEAKLKISDVNCAVHLCSLFHQRYADFAPSLLQVWKKHFEARKEEKTPNITKLRTDLRFIAELTIVGIFTDKEGLSLIYEQLKNIINADRESHTHVSVVISFCRHCGDDIAGLVPRKVKSAAEKFNLSFPPSEIISPEKQQPFQNLLKEYFTSLTKHLKRDHRELQNTERQNRRILHSKGELSEDRHKQYEEFAMSYQKLLANSQSLADLLDENMPDLPQDKPTPEEHGPGIDIFTPGKPGEYDLEGGIWEDEDARNFYENLIDLKAFVPAILFKDNEKSCQNKESNKDDTKEAKESKENKEVSSPDDLELELENLEINDDTLELEGGDEAEDLTKKLLDEQEQEDEEASTGSHLKLIVDAFLQQLPNCVNRDLIDKAAMDFCMNMNTKANRKKLVRALFIVPRQRLDLLPFYARLVATLHPCMSDVAEDLCSMLRGDFRFHVRKKDQINIETKNKTVRFIGELTKFKMFTKNDTLHCLKMLLSDFSHHHIEMACTLLETCGRFLFRSPESHLRTSVLLEQMMRKKQAMHLDARYVTMVENAYYYCNPPPAEKTVKKKRPPLQEYVRKLLYKDLSKVTTEKVLRQMRKLPWQDQEVKDYVICCMINIWNVKYNSIHCVANLLAGLVLYQEDVGIHVVDGVLEDIRLGMEVNQPKFNQRRISSAKFLGELYNYRMVESAVIFRTLYSFTSFGVNPDGSPSSLDPPEHLFRIRLVCTILDTCGQYFDRGSSKRKLDCFLVYFQRYVWWKKSLEVWTKDHPFPIDIDYMISDTLELLRPKIKLCNSLEESIRQVQDLEREFLIKLGLVNDKDSKDSMTEGENLEEDEEEEEGGAETEEQSGNESEVNEPEEEEGSDNDDDEGEEEEEENTDYLTDSNKENETDEENTEVMIKGGGLKHVPCVEDEDFIQALDKMMLENLQQRSGESVKVHQLDVAIPLHLKSQLRKGPPLGGGEGEAESADTMPFVMLTRKGNKQQFKILNVPMSSQLAANHWNQQQAEQEERMRMKKLTLDINERQEQEDYQEMLQSLAQRPAPANTNRERRPRYQHPKGAPNADLIFKTGGRRR [UPF2]”, for which the results for the thermal stability score in data set [1] (setting [5]) and in data set [1] (cell cycle stage: mitosis) were -0.603 and -0.161, respectively. Besides, the “solubility change mitosis (log2)” value in data set [2] was -0.109. Further, the “solubility in G1/S (log2)” value in data set [3] is -0.245. The melting temperature worked out at 49.6 °C in data set [4] (cell cycle stage: G1/S) and 49.7 °C in data set [4] (cell cycle stage: mitosis).

As to “MPAPIRLRELIRTIRTARTQAEEREMIQKECAAIRSSFREEDNTYRCRNVAKLLYMHMLGYPAHFGQLECLKLIASQKFTDKRIGYLGAMLLLDERQDVHLLMTNCIKNDLNHSTQFVQGLALCTLGCMGSSEMCRDLAGEVEKLLKTSNSYLRKKAALCAVHVIRKVPELMEMFLPATKNLLNEKNHGVLHTSVVLLTEMCERSPDMLAHFRKLVPQLVRILKNLIMSGYSPEHDVSGISDPFLQVRILRLLRILGRNDDDSSEAMNDILAQVATNTETSKNVGNAILYETVLTIMDIKSESGLRVLAINILGRFLLNNDKNIRYVALTSLLKTVQTDHNAVQRHRSTIVDCLKDLDVSIKRRAMELSFALVNGNNIRGMMKELLYFLDSCEPEFKADCASGIFLAAEKYAPSKRWHIDTIMRVLTTAGSYVRDDAVPNLIQLITNSVEMHAYTVQRLYKAILGDYSQQPLVQVAAWCIGEYGDLLVSGQCEEEEPIQVTEDEVLDILESVLISNMSTSVTRGYALTAIMKLSTRFTCTVNRIKKVVSIYGSSIDVELQQRAVEYNALFKKYDHMRSALLERMPVMEKVTTNGPTEIVQTNGETEPAPLETKPPPSGPQPTSQANDLLDLLGGNDITPVIPTAPTSKPSSAGGELLDLLGDINLTGAPAAAPAPASVPQISQPPFLLDGLSSQPLFNDIAAGIPSITAYSKNGLKIEFTFERSNTNPSVTVITIQASNSTELDMTDFVFQAAVPKTFQLQLLSPSSSIVPAFNTGTITQVIKVLNPQKQQLRMRIKLTYNHKGSAMQDLAEVNNFPPQSWQ [AP1G1]”, the thermal stability score is -1.48 in data set [1] (setting [5]) and 0.274 in data set [1] (cell cycle stage: mitosis). Besides, in data set [2], the “solubility change mitosis (log2)” value is -0.192. For the same substance, the “solubility in G1/S (log2)” value in data set [3] was -0.225. Further, the melting temperature was determined as 50.3 °C in data set [4] (cell cycle stage: G1/S) and 50.1 °C in data set [4] (cell cycle stage: mitosis).

Turning to “MPAVSKGDGMRGLAVFISDIRNCKSKEAEIKRINKELANIRSKFKGDKALDGYSKKKYVCKLLFIFLLGHDIDFGHMEAVNLLSSNRYTEKQIGYLFISVLVNSNSELIRLINNAIKNDLASRNPTFMGLALHCIASVGSREMAEAFAGEIPKVLVAGDTMDSVKQSAALCLLRLYRTSPDLVPMGDWTSRVVHLLNDQHLGVVTAATSLITTLAQKNPEEFKTSVSLAVSRLSRIVTSASTDLQDYTYYFVPAPWLSVKLLRLLQCYPPPDPAVRGRLTECLETILNKAQEPPKSKKVQHSNAKNAVLFEAISLIIHHDSEPNLLVRACNQLGQFLQHRETNLRYLALESMCTLASSEFSHEAVKTHIETVINALKTERDVSVRQRAVDLLYAMCDRSNAPQIVAEMLSYLETADYSIREEIVLKVAILAEKYAVDYTWYVDTILNLIRIAGDYVSEEVWYRVIQIVINRDDVQGYAAKTVFEALQAPACHENLVKVGGYILGEFGNLIAGDPRSSPLIQFHLLHSKFHLCSVPTRALLLSTYIKFVNLFPEVKPTIQDVLRSDSQLRNADVELQQRAVEYLRLSTVASTDILATVLEEMPPFPERESSILAKLKKKKGPSTVTDLEDTKRDRSVDVNGGPEPAPASTSAVSTPSPSADLLGLGAAPPAPAGPPPSSGGSGLLVDVFSDSASVVAPLAPGSEDNFARFVCKNNGVLFENQLLQIGLKSEFRQNLGRMFIFYGNKTSTQFLNFTPTLICSDDLQPNLNLQTKPVDPTVEGGAQVQQVVNIECVSDFTEAPVLNIQFRYGGTFQNVSVQLPITLNKFFQPTEMASQDFFQRWKQLSNPQQEVQNIFKAKHPMDTEVTKAKIIGFGSALLEEVDPNPANFVGAGIIHTKTTQIGCLLRLEPNLQAQMYRLTLRTSKEAVSQRLCELLSAQF [AP2A2]”, the thermal stability score in data set [1] (setting [5]) was -0.19; in data set [1] (cell cycle stage: mitosis) it was -0.622. In data set [2], the “solubility change mitosis (log2)” value is -0.139. Also, in data set [3], the “solubility in G1/S (log2)” value is -0.202. The melting temperature was 52.2 °C in data set [4] (cell cycle stage: G1/S) and 51.7 °C in data set [4] (cell cycle stage: mitosis).
